Results taken from patent US20210395381A1 (OSSIANIX, published 2021).

How the values were obtained:
recombinant human TfR-1 [1] = target: T1, recombinant human TfR-1 (human, UniProt P02786 89-760); experiment: ELISA titration, large-scale purified VNAR-hFc
T1 construct: extracellular domain; also called hTfR1; human transferrin receptor-1
T1 sequence (P02786 89-760): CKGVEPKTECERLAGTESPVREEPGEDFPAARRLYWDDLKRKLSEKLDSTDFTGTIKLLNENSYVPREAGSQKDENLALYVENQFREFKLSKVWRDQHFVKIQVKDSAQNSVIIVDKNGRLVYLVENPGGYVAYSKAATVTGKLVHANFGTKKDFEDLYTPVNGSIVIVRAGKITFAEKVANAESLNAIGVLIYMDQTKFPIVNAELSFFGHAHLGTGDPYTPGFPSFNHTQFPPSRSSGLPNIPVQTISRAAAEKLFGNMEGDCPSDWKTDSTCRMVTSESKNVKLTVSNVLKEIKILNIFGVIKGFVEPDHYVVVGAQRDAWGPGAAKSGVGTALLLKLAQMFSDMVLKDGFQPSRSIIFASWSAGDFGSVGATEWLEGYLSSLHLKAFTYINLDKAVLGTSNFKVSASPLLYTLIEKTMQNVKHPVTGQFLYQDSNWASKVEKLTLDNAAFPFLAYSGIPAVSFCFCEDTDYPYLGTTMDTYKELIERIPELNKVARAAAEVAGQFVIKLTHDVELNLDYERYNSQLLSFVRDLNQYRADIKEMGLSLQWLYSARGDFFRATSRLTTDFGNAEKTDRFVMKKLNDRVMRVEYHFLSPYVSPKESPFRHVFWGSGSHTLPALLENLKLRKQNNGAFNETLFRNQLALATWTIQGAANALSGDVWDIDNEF

recombinant mouse TfR-1 [2] = target: T2, recombinant mouse TfR-1 (mouse, UniProt Q62351 89-763); experiment: ELISA titration, large-scale purified VNAR-hFc
T2 construct: Bought recombinant protein; also called mTfR1
T2 sequence (Q62351 89-763 limits assumed): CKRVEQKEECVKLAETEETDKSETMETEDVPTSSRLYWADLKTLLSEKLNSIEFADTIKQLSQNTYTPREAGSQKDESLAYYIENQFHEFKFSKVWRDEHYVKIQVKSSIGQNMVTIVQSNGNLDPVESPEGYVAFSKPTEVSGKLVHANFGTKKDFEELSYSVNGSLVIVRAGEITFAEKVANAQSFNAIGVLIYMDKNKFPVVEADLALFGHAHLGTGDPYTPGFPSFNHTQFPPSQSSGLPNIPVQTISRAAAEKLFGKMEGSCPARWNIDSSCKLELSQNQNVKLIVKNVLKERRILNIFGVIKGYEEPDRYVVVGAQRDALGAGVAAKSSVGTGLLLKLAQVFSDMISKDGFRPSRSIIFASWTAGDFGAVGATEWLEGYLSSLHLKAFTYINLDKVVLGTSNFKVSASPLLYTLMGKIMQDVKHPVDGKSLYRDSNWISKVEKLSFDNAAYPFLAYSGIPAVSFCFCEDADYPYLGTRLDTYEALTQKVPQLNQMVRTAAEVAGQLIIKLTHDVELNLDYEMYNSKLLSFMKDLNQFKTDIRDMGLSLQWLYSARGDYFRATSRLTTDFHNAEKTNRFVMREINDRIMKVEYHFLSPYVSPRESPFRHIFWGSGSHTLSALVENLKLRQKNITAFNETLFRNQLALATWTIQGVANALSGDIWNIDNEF

recombinant human TfR-1 [3] = target: T3, recombinant human TfR-1 (human, UniProt P02786 89-760); experiment: phage ELISA, VNAR-phage on plate-coated recombinant human TfR-1
T3 construct: also called hTfR1; human transferrin receptor-1
T3 sequence (P02786 89-760 limits assumed): as the sequence (P02786 89-760) above

recombinant mouse TfR-1 [4] = target: T4, recombinant mouse TfR-1 (mouse, UniProt Q62351 89-763); experiment: phage ELISA, VNAR-phage on plate-coated recombinant mouse TfR-1
T4 construct: Coated at 1 ug/ml for the phage ELISA; also called mTfR1; mouse transferrin receptor-1
T4 sequence (Q62351 89-763 limits assumed): as the sequence (Q62351 89-763 limits assumed) above

| Binder | EC50 (recombinant human TfR-1 [1]) [nM] | fold difference of EC50 against parental Clone 8 (recombinant human TfR-1 [1]) [fold] | EC50 (recombinant mouse TfR-1 [2]) [nM] | fold difference of EC50 against parental Clone 8 (recombinant mouse TfR-1 [2]) [fold] | phage ELISA A450 (recombinant human TfR-1 [3]) [A450] | phage ELISA A450 (recombinant mouse TfR-1 [4]) [A450] |
| --- | --- | --- | --- | --- | --- | --- |
| Clone 8.5 VNAR-hFc fusion (Fc fusion, human, not shown: small tags and cut ends, domain: Fc (CH2 and CH3); also called the variant) chain (part 1 of 2): ARVDQTPQTITKETGESLTINCVLRDSNCALPSTYWYRKKSGSTNEESISKGGRYVETVNSGSKSFSLRINDLTVEDSGTYRCKVIAQLGWWLRGCNYRKHDVYGDGTAVTVNA chain (part 2 of 2): DKTHTCPPCPAPPVAGPSVFLFPPKPKDTLMISRTPEVTCVVVDVSHEDPEVKFNWYVDGVEVHNAKTKPREEQYNSTYRVVSVLTVLHQDWLNGKEYKCKVSNKGLPSSIEKTISKAKGQPREPQVYTLPPSRDELTKNQVSLTCLVKGFYPSDIAVEWESNGQPENNYKTTPPVLDSDGSFFLYSKLTVDKSRWQQGNVFSCSVMHEALHNHYTQKSLSLSPGK | 27 | > 25 | 47 | > 25 |  |  |
| Clone 8.161 (VNAR) VNAR: ARVDQTPQTITKETGESLTINCVLRDSNCALPSTYWYRKKSGSTNEESISKGGRYVETVNSGSKSFSLRINDLTVEDSGTYRCKVIAQLSSILRGCIAGKHDVYGDGTAVTVNA |  |  |  |  | 0.048 | 0.043 |
| Clone 8.160 (VNAR) VNAR: ARVDQTPQTITKETGESLTINCVLRDSNCALPSTYWYRKKSGSTNEESISKGGRYVETVNSGSKSFSLRINDLTVEDSGTYRCKVIAQLSSILRGCFPQKHDVYGDGTAVTVNA |  |  |  |  | 0.049 | 0.043 |
| Clone 8.162 (VNAR) VNAR: ARVDQTPQTITKETGESLTINCVLRDSNCALPSTYWYRKKSGSTNEESISKGGRYVETVNSGSKSFSLRINDLTVEDSGTYRCKVIAQLSSNRNGCNYRKHDVYGDGTAVTVNA |  |  |  |  | 0.055 | 0.042 |
